Assay [1] deals with Bovine thrombin (bovine) (UniProt P00735).
For assay [2] the target is unchanged. This is another data set of the same source.

Read-outs that look alike come from different tables or passages of the source.

As for “Suc 3,5-diI-Tyr Glu Pro Ile Pro Glu Glu Ala Cha D-Glu (ID#4) (peptide)”, the IC50, thrombin induced fibrin clot inhibition assay (turbidity at 405 nM) in assay [1] is less than 25 µM.
Take “Suc--Tyr--Glu--Pro--Ile--Pro--Glu--Glu--Cha--D--Glu (ID#21) (peptide)”: the IC50, thrombin induced fibrin clot inhibition assay (turbidity at 405 nM) in assay [2] was less than 25 µM.
In assay [2], “Suc--Tyr--Glu--Pro--Ile--Pro--Glu--Glu--Cha--Gln--NH2 (ID#11) (peptide)” had an IC50, thrombin induced fibrin clot inhibition assay (turbidity at 405 nM) of less than 25 µM.
Take “Suc--Tyr--Glu--Pro--Tiq--Glu--Glu--Ala--Cha--D--Glu (ID#9) (peptide)”: the IC50, thrombin induced fibrin clot inhibition assay (turbidity at 405 nM) in assay [2] was less than 25 µM.

The values are drawn from patent US5279812.
